The values below come from patent publication US20180185504A1 (Regeneron, published 2018).

Common to all, as to test: cell-based or functional assay
Assay [1] deals with T1, human prolactin receptor (PRLR) (human, UniProt P16471 25-622).
T1 sequence: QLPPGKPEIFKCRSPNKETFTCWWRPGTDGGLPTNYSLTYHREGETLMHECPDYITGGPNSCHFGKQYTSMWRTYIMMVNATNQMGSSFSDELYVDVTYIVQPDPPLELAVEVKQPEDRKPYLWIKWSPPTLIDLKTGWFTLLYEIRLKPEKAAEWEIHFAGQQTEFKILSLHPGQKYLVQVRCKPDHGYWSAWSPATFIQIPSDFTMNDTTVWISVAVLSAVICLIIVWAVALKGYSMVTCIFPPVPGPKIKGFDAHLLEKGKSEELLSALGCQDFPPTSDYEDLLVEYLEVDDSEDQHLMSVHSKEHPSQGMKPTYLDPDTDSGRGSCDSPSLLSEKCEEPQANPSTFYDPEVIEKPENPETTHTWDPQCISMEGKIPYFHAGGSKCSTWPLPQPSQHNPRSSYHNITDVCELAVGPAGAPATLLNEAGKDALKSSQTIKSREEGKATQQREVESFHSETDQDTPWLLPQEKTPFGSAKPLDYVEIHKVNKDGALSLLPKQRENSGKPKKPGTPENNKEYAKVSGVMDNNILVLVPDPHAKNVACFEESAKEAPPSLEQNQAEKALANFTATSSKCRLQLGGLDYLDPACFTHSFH

The target of assay [2] is T1, human prolactin receptor (PRLR). The source holds these as a separate data set.
For assay [3] the target is unchanged. The source holds these as a separate data set.
For assay [4] the target is unchanged. The source holds these as a separate data set.
Assay [5] shares this target. The source holds these as a separate data set.
For assay [6] the target is unchanged. The source holds these as a separate data set.

Read-outs that look alike come from different tables or passages of the source.

B1: H1H6782P-DM1 (antibody, human IgG1, V domains shown)
VH: EVQLVESGGGLVQPGRSLRLSCAASGFTFDDYAMHWVRQAPGKGLEWVSGIIWNSGHIGYGDSVKGRFTISRDNAKKSLYLQMNSLRAEDTALYYCARDSGRYQSYFDYWGQGTLVTVSS
VL: DIQMTQSPSTLSASVGDRVTITCRASHIISSWLAWYQQKPGKAPKVLIFKASSLESGVPSRFSGSGSGTEFTLTISSLQPDDFATYYCQQYNTYSRTFGQGTKVEIK
modifications: DM1 conjugated through SMCC linker; attachment residues not stated
For the molecule B1, in assay [1], the “% Kill, PC3/PRLR cells” value came out at 64% and the “IC50, cell viability, PC3/PRLR cells” value was determined as 0.92 nM. Also, in assay [2], the “% Kill, MCF7/PRLR cells” value was 85%; the “% Kill, MCF7 cells” value came out at 57%; the “% Kill, T47D cells” value came to 74%; the “IC50, cell viability, MCF7/PRLR cells” value came out at 0.65 nM. Also, in assay [2], the “IC50, cell viability, MCF7 cells” value came to 120 nM and the “IC50, cell viability, T47D cells” value came to 4.19 nM. Also, in assay [3], the “IC50, cell viability, T47D cells, + 15 nM PRL” value is 2 nM and the “IC50, cell viability, T47D cells, without PRL” value amounted to 1 nM. For the same molecule, in assay [4], the “% Kill, T47D cells” value turned out to be 100% and the “IC50, cell viability, T47D cells” value stood at 3 nM. In assay [5], the “% Kill, MCF7/ATCC cells” value amounted to 70%; the “% Kill, MCF7/PRLR cells” value worked out at 80%; the “IC50, cell viability, MCF7/ATCC cells” value was determined as 250 nM; the “IC50, cell viability, MCF7/PRLR cells” value came out at 0.3 nM.

B2: H1H6958N2-DM1 (antibody, human IgG1, V domains shown)
VH: QVQLVESGGGVVQPGRSLRLSCGASGFTFRNYGMQWVRQGPGKGLEWVTLISFDGNDKYYADSVKGRFTISRDNSKNTLFLQMNSLRTEDTAVYYCARGGDFDYWGQGTLVTVSS
VL: DIQMTQSPSSLSASVGDRVTITCRASQDIRKDLGWYQQKPGKAPKRLIYAASSLHSGVPSRFSGSGSGTEFTLTISSLQPEDFATYYCLQHNSYPMYTFGQGTKLEIK
modifications: DM1 conjugated through SMCC linker; attachment residues not stated
With B2, in assay [1], the “% Kill, 293/PRLR cells” value came out at 95%; the “% Kill, PC3/PRLR cells” value is 83%; the “IC50, cell viability, 293/PRLR cells” value worked out at 0.1 nM; the “IC50, cell viability, PC3/PRLR cells” value is 0.43 nM. In assay [2], the “% Kill, MCF7/PRLR cells” value is 77%; the “% Kill, MCF7 cells” value came to 77%; the “% Kill, T47D cells” value was determined as 71%; the “IC50, cell viability, MCF7/PRLR cells” value worked out at 0.19 nM. For the same molecule, in assay [2], the “IC50, cell viability, MCF7 cells” value was 100 nM and the “IC50, cell viability, T47D cells” value was found to be 1.34 nM. In assay [3], the “IC50, cell viability, T47D cells, + 15 nM PRL” value was found to be 3 nM and the “IC50, cell viability, T47D cells, without PRL” value amounted to 1 nM. For the same molecule, in assay [6], the “% Kill, MCF7/ATCC cells” value stood at 72%; the “% Kill, MCF7/PRLR cells” value is 83%; the “% Kill, PC3/hPRLR cells” value was determined as 79%; the “IC50, cell viability, MCF7/ATCC cells” value came to 90 nM. For the same molecule, in assay [6], the “IC50, cell viability, MCF7/PRLR cells” value stood at 0.2 nM and the “IC50, cell viability, PC3/hPRLR cells” value amounted to 0.5 nM. In assay [4], the “% Kill, T47D cells” value was 100% and the “IC50, cell viability, T47D cells” value was determined as 2 nM. Also, in assay [5], the “% Kill, MCF7/ATCC cells” value was found to be 70%; the “% Kill, MCF7/PRLR cells” value was 80%; the “IC50, cell viability, MCF7/ATCC cells” value worked out at 70 nM; the “IC50, cell viability, MCF7/PRLR cells” value came to 0.2 nM.
